{"source": "patent US20190085030A1", "target": "A-beta1-42 (UniProt P05067)", "sequence (P05067 672-713 limits assumed)": "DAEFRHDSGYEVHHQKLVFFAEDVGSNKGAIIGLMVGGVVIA", "assay": "iodixanol density gradient centrifugation of A-beta1-42 with FITC-labelled peptide; dye in fraction 12", "note": "Non-standard residues stand in square brackets, D forms with d. No end group written: not given here.", "data": [{"binder": "[dP][dT][dL][dH][dT][dH][dN][dR][dR][dR][dR][dR] (also: FITC label, site not given here)", "note": "[RD2 (rational D3) (SEQ ID NO: 2)]", "values": [{"measurement": "Peptide bound in fraction 12 [%]", "result": 20, "unit": "%"}]}, {"binder": "[dR][dP][dR][dT][dR][dL][dH][dT][dH][dR][dN][dR] (also: FITC label, site not given here)", "note": "[D3 (SEQ ID NO: 11)]", "values": [{"measurement": "Peptide bound in fraction 12 [%]", "result": 4, "unit": "%"}]}, {"binder": "[dR][dP][dR][dT][dR][dL][dR][dN][dR] (also: FITC label, site not given here)", "note": "[D3Δhth (D3 with deletion hth) (SEQ ID NO: 1)]", "values": [{"measurement": "Peptide bound in fraction 12 [%]", "result": 2, "unit": "%"}]}, {"binder": "[dR][dR][dP][dT][dL][dR][dH][dT][dH][dN][dR][dR] (also: FITC label, site not given here)", "note": "[RD3 (rational D3) (SEQ ID NO: 4)]", "values": [{"measurement": "Peptide bound in fraction 12 [%]", "result": 4, "unit": "%"}]}, {"binder": "[dR][dP][dR][dT][dR][dL]", "note": "[NT-D3 (D3-N-Terminus) (SEQ ID NO: 6)]", "values": [{"measurement": "Peptide bound in fraction 12 [%]", "result": 0, "unit": "%"}]}]}
